T1: YagL-H6 (Escherichia coli, UniProt P77607 1-232)
T1 sequence: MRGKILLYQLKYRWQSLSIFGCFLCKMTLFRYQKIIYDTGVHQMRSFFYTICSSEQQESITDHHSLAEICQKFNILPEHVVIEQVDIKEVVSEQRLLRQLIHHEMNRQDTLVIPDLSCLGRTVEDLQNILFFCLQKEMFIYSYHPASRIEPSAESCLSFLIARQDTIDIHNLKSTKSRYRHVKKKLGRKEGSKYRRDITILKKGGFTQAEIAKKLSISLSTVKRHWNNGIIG

T2: PepA-H6 (Escherichia coli, UniProt P68767 1-503)
T2 sequence: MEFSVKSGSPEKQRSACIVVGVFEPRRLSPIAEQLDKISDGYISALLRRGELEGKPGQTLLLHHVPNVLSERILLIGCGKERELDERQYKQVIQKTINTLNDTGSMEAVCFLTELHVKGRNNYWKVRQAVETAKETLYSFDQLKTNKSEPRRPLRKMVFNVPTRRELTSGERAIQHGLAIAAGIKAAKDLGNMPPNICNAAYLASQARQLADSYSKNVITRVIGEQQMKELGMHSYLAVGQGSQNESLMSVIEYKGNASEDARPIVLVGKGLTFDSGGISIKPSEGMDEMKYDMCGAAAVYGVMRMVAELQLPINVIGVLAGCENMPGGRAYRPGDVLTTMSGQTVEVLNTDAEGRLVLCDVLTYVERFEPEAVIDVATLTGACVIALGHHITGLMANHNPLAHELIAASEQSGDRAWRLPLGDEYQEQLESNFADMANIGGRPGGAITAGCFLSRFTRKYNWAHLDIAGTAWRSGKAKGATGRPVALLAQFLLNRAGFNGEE

B1: 21 R+ (ssRNA)
RNA: AUGUGGAAAAUCUCUAGCAGU
B2: 21 R- (ssRNA)
RNA: CUGCUAGAGAUUUUCCACAU
B3: hairpin (structured_RNA)
RNA: GCUCUAGAGCAUUAUGUUCAGAUAAGG

Columns and labels:
YagL-H6 = target: T1, YagL-H6; assay: filter binding; 75 mM Tris-HCl pH 7.5, 0.4 mM spermidine, 0.1 mM MgCl2, 50 mM NaCl, 0.5 mM EDTA, 0.25 mM DTT, 6% glycerol; 10 min at room temperature; 50 fmol RNA in 60 µL, protein 0-10 µM; settings: protein: recombinant, label: 5'-32P (printed as [31]P)
PepA-H6 = target: T2, PepA-H6; assay: as above; settings: protein: recombinant, tags: C-terminal His6, chain copies: 6, label: 5'-32P (printed as [31]P)

| Binder | Kd (YagL-H6; single strand) | Kd (PepA-H6; single strand) | Kd (YagL-H6; hairpin) | Kd (PepA-H6; hairpin) |
| --- | --- | --- | --- | --- |
| B1 | 4500 ± 300 nM | 2000 ± 600 nM |  |  |
| B2 | 5000 ± 1200 nM | 600 ± 300 nM |  |  |
| B3 |  |  | 2400 ± 300 nM | 600 ± 400 nM |

From paper PMC11587861, “A high-throughput search for intracellular factors that affect RNA folding identifies E. coli proteins PepA and YagL as RNA chaperones that promote RNA remodelling”
